Laboratory results reported in a protein production outcome set (Wang et al. 2014).

Test: label from the status in PepcDB records

Sequence	protein production
MSDIHKKIKKKQFAPLYLLYGTEAFFINETIKLITTEALEEEDREFNVVTYDLEEAYLEDVVEDARTLPFFGERKVLLIKSPLFLTSQKEKLEQNIKILEEYIGEPSPFSILVFVAPYEKLDERKKITKLLKKTADIVEANAMQVQDVQKWIVARAEEGHVHIDNAAVSLLLELVGSNVTMLAKEMDKLTLYVGMGGEITPKLVAELVPKSVEQNVFALTEKVVKKDIAGAMQILDGLFTQQEEPIKLLALLVSQFRLLHQVKELQQRGYGQNQIASHIGVHPYRVKLAMNQTKFFSFEELKKVIIELAEADYSMKTGKMDKKLVLEFFLMRLNHM	failed
MSDIIDEVISSFKTSSIFINREYLLPDYIPDELPHREDQIRKIASILAPLYREEKPNNIFIYGLTGTGKTAVVKFVLSKLHKKFLGKFKHVYINTRQIDTPYRVLADLLESLDVKVPFTGLSIAELYRRLVKAVRDYGSQVVIVLDEIDAFVKKYNDDILYKLSRINSEVNKSKISFIGITNDVKFVDLLDPRVKSSLSEEEIIFPPYNAEELEDILTKRAQMAFKPGVLPDNVIKLCAALAAREHGDARRALDLLRVSGEIAERMKDTKVKEEYVYMAKEEIERDRVRDIILTLPFHSKLVLMAVVSISSEENVVSTTGAVYETYLNICKKLGVEAVTQRRVSDIINELDMVGILTAKVVNRGRYGKTKEIGLAVDKNIIVRSLIESDSRFADLWS	failed
MSDIIHLLPDSVANQIAAGEVIQRPASVIKELVENAIDADAQNIHVLVTDAGKTCIQIIDDGKGMSETDARLSFERHATSKIREAADLFALRTMGFRGEALASIAAVAQVELKTRLESEELGTKLVIAGSKVESQEAVSCSKGSNFSVKNLFFNVPARRKFLKANSTELSNILAEFERIALVHPEVAFSLYSNDSELFNLPVSPLRQRILAIFGKKLNQQLLNIEVNTTMVKISGYIAKPETARKKGAHQYFFVNGRYMRHPYFHKAVMEAYEQLIPVGEQVSYFIYFEVDPANIDVNIHPTKTEIKFENEQAIWQILSASVKESLGKFSAIPSIDFDTEDMPDIPAFEQNLPPAPPKIHYNSDFNPFKVSSGGSGGGSYSRPKVEWEGLYGGLTKASKMNEPQQEPEMDWENSPFEEEPMVAEEKTISAVSAASSTFSSASSTLYANESVIEKGNLHLQFKGRFILTSVKSGLMLIDQHRAHIRVLFDRYMVQIKQKQGVSQGVLFPEILQLPASEAAVLQGIMDDLSAVGFDLSDLGGGSYAINGIPSGIEGLNPVELVRNMLHTAMEKGNDVKEEIQNILALTLARAAAIVYGQVLSNEEMVSLVDSLFACPSPNYTPDGKTVLTTIKEEDIEKLFK	failed
MSDILYSLLISAFLGLAHGLDADHIANVRIFKSVKKIFEFSLFHSAGFLIIAIPLSLLSLVTILEFPLLITSYSIGLLVSGLLLYGTVKGKELEIEPKRFGLLQGALVISPSKLIVLILALASESIFYAVLILLVFIVTSIISFMIFSLLNLIPKRFDKIVNIVISLGSIIYILYELITTLMSMH	failed
MSDKYYRSAYMNVDLNAVASNFKVFSTLHPNKTVMAVVKANAYGLGSVKVARHLMENGATFFAVATLDEAIELRMHGITAKILVLGVLPAKDIDKAIQHRVALTVPSKQWLKEAIKNISGEQEKKLWLHIKLDTGMGRLGIKDTKTYQEVIEIIQQYEQLVFEGVFTHFACADEPGDMTTEQYQRFKDMVNEAIKPEYIHCQNSAGSLLMDCQFCNAIRPGISLYGYYPSEYVQQKVKVHLKPSVQLIANVVQTKTLQAGESVSYGATYTATDPTTIALLPIGYADGYLRIMQGSFVNVNGHQCEVIGRVCMDQTIVKVPDQVKAGDSVILIDNHRESPQSVEVVAEKQHTINYEVLCNLSRRLPRIYHDGDQRFVTNELLK	not failed
MSDLKSLATKFASDHESGKLLVLPTVWDTWSAGLVEEAGFSGLTIGSHPVADATGSSDGENMNFADYMAVVKKITSAVSIPVSVDVESGYGLSPADLIAQILEAGAVGINVEDVVHSEGKRVREAQEHADYIAAARQAADVAGVDVVINGRTDAVKLGADVFEDPMVEAIKRIKLMEQAGARSVYPVGLSTAEQVERLVDAVSVPVNITAHPVDGHGAGDLATLAGLGVRRVTFGPLWQKWLAATSAQQLKGWA	not failed
MSDLTKVFIAPEEIVNFLKKNMQLKEVYQKILFQRLILQVAEARGITVTTEEIEAEANRQRREKRLEKAADTMAWLADQLASPEDWEMGIRDRLLSQKLANFLFADKVEAFFIQNQLEFEQVSLYQIIVDSEKLAQEIYYQIEDEEISFYEAAYLYDVDAVRRQRCGYEGKVYRFSLPVNVATVIFRTSPKQLISPLQTEQGYHLFMVEEFIPAELTGERYQEILNNMFNQWLITELNKILN	failed
MSDNNDRMYELEYPSPEVSGQTAGGPTLIVALQGYADAGHAVESSSSHLMDALDHRLIASFNNDELIDYRSRRPVVVIEHNEVTSMDELNLGLHVVRDNDNKPFLMLSGPEPDLRWGDFSNAVVDLVEKFGVENTICLYAAPMTVPHTRPTVVTAHGNSTDRLKDQVSLDTRMTVPGSASLMLEKLLKDKGKNVSGYTVHVPHYVSASPYPAATLKLLQSIADSADLNLPLLALERDAEKVHRQLMEQTEESSEIQRVVGALEQQYDSELERYRNRHPQAVMPGESELPSGDEIGAEFEKFLADLDDQGGSDHKETPEA	not failed
MSDPITLNVGGKLYTTSLATLTSFPDSMLGAMFSGKMPTKRDSQGNCFIDRDGKVFRYILNFLRTSHLDLPEDFQEMGLLRREADFYQVQPLIEALQEKEVELSKAEKNAMLNITLNQRVQTVHFTVREAPQIYSLSSSSMEVFNANIFSTSCLFLKLLGSKLFYCSNGNLSSITSHLQDPNHLTLDWVANVEGLPEEEYTKQNLKRLWVVPANKQINSFQVFVEEVLKIALSDGFCIDSSHPHALDFMNNKIIRLIRYR	failed
MSDPVSYTRKDSIAVISMDDGKVNALGPAMQQALNAAIDNADRDDVGALVITGNGRVFSGGFDLKILTSGEVQPAIDMLRGGFELAYRLLSYPKPVVMACTGHAIAMGAFLLSCGDHRVAAHAYNIQANEVAIGMTIPYAALEIMKLRLTRSAYQQATGLAKTFFGETALAAGFIDEIALPEVVVSRAEEAAREFAGLNQHAHAATKLRSRADALTAIRAGIDGIAAEFGL	not failed
MSDRLANQIAAGEVVQRPASVAKELIENALDAGASSIEVLLKDAGSTLVQVIDDGCGMGPGDAERCFERHATSKLRSVDDLERIRTLGFRGEALASIAAVAQVTLKTKRVEDDAGTLVRVEGGEQVEKRPCAIPNGTSVAVRNLFFNVPARRNFLKTPATELKHLTQTVQSLALANPDTAVRLEHDGHEHYDLPAAPDSDWHAATRARILGLFGGDHEDELVAVEDESSDLRLRGFVGAPSFHRKTRGEQFLFVNGRAVTDRYLSHAVKKAYGELVPDGAFPFFALFLAMNPERVDVNVHPQKEEVKFDDQSGIYGFLRSAVRRALGRVHVSPQMDDGDDEADNEEDSPGPESDGTGSGGHAVSGDGTSSPRPTPTSFQPQRSSGDATDSSGRSSSGPSPQSPKPRPENPSVSPGDQSDALYRRPDGGDESSPGDAPASPPHREGGSSSTSAADEAERSGRRPVWGLHDTYVVTPTETGMMLVDQRAAHLRVLYERARAHLRDQQGASQRLLFPHTVDLSPAEVELLDELRDDLDALGFELERLSGRTVSVRGVPADVPDGNEDTILEELLEQYRSAQDAVEDERREHLAKTMAQRSAVDRGQPLSEEERRALLDDLFDCEMPYADPTGTPTIVKLSMEELADRFGR	failed
MSDRRAPLVLEVDGVRHPLTPPGLTIGRGSDADIRINDPGISRLHARINVWPQGNDIGLSIEDLDSTNGVTVNGVKVTSTELGDGSRIEIGSTRMLVHSPTRILEHHHHHH	failed
MSDSGRADALLAELPRDGRGRLKVFLGAAPGVGKTYAMLQAAHSQLRQGVKVLAGVVETHGRAETEALLSGLPQQPLVRSEYRGVLLEEMDLDGLLKAKPKLVLVDELAHSNAPGSRHAKRWQDIQELLAAGIDVFTTVNVQHLESLNDQVRGITGVQVRETLPDWVLQEAYELLLVDLPPRELLERLRDGKVYVPEQARAAIDAFFTQTNLTALRELAMQTAAAQVDNDLAQGYRQLGQAAPAVRGRLLVGIDGDAQAERLVRHASRVAQRRHLPWSLVHVDNGRLRDEQARLRLQAAQQLAERLGGEVVLLRAGEVAKTLIQHAAERRASLLLVGQSRRRWRRRWFGGGLAARLLRNADGLEINVLDSEPQPHQPGLRVKHSLIWFDYVLAVLATLLASALAWGVASVLPLPNISLVFLAAVLLVAVRSSLGPALACAALSFLSYDFLFIPPNFSLAIQREEDVLTLLFFLLMAALTGNLAARQRRQLQALRDTQEETGELLDLSRKLTAATDRQAVISAAAQHLNGRDELRVCLINRDGQGGWKVETGGSPQFSEAERAAADWAWQHDQPAGLGTGTLPFGRWWWWPLSVDDGPLGLLGVCPREGEEFSGQRRRLLTALSQPLAQALARARLAEDLEAARLHGETEQLRSALLASVSHDLRTPLTSMRGSIDSLLALGEAIPLEDRRELLEGTRDEAERLDRYIQNLLDMTRLGHGALKLARDWVAPGDIVGSALNRLRAVLAPLQVATELPADLPLLYVHAALIEQALVNVLENAARFSPLQGHLQLKVSASEQELSFAVSDEGPGIPEDERAKIFDMFYTAARGDRGGQGTGLGLAICQGMVGAHGGHISVAEGIGGKGTCITLHLPLQTQPELESDL	failed
MSDSLRIIFAGTPDFAARHLGALLSSQHKIVGVFTQPDRPAGRGNKLTPSPVKILAEHHGIPVFQPKSLRPEENQHLVADLNADIMVVVAYGLILPAAVLAMPRLGCINVHGSLLPRWRGAAPIQRSVWAGDEKTGITIMQMDIGLDTGAMLHKIECAIQPEDTSATLYDKLAQLGPQGLLITLQQLAAGTALAEVQNETQATYAEKLSKEEAKLDWTLSATQLERCIRAFNPWPVSYFIVDEQPIKVWQAQVLPAGEDAEPGTIIHADKHGIQVATADGVLNITQLQPAGKKAMSAADLLNSRREWFIPGSQLV	not failed
MSDSPRPSSRPDFWDVRYERDRHLFGAEPNAFVKAEAHRLPPESEVVEVGAGEGRTAAWLAREHGHRVTAVDFSETALKTAQERAEAEHLRLDTVRADVRTWRPDRQWDAAVVTFLQLLPDERPRLYRLLKNSVRSGGWLLAEWLRPAHLTGPYDRMGPSRADRMVPVDEVRRAFADEHLASVEAVDVHLQEGPHLTGDAAVVRGIVQAGAS	failed
MSDSSPTINFINFNQTGTCISLGTSKGFKIFNCEPFGKFYSEDSGGYAIVEMLFSTSLLALVGIGDQPALSPRRLRIINTKKHSIICEVTFPTSILSVKMNKSRLVVLLQEQIYIYDINTMRLLHTIETNPNPRGLMAMSPSVANSYLVYPSPPKVINSEIKAHATTNNITLSVGGNTETSFKRDQQDAGHSDISDLDQYSSFTKRDDADPTSSNGGNSSIIKNGDVIVFNLETLQPTMVIEAHKGEIAAMAISFDGTLMATASDKGTIIRVFDIETGDKIYQFRRGTYATRIYSISFSEDSQYLAVTGSSKTVHIFKLGHSMSNNKLDSDDSNMEEAAADDSSLDTTSIDALSDEENPTRLAREPYVDASRKTMGRMIRYSSQKLSRRAARTLGQIFPIKVTSLLESSRHFASLKLPVETNSHVMTISSIGSPIDIDTSEYPELFETGNSASTESYHEPVMKMVPIRVVSSDGYLYNFVMDPERGGDCLILSQYSILMD	failed
MSDVPHLRFPEFSGEWEEHTLSEYLEFKNGLNPDAKRIGSGLPFISVMDILSEGVINYDNIRGKVNATEKEIECFGVKDGDLLFQRSSETLEDVGRANVYMDNRTAIYGGFVIRGRKIGNYDPLFFKYLLATPLARKRTCRMGAGAQHFNIGQEGLSKISLYFPSIEEQRKIAEFLSLIDERIATQNKIIEDLKKLKSAISLNVLHSDKWEQFKIKDIAQIGRGRVISSIEIGQQKSPTYPVYSSQTSNDGIMGYLDDYMFEGEYISWTTDGANAGTVFYRNGKFNCTNVCGLLKLRKEFDTHFVSLVLAEATKKYVSINLANPKLMNNTMGNIQIRLPKLEEQKRISIVFRVLQRLWTVHNSLLTEYTKQEQYLLSQMFILEHHHHHH	failed
